{
  "source": "the DeepSol protein solubility set",
  "assay": "soluble on expression in E. coli; label from the status in PepcDB or PDB records",
  "data": [
    {"sequence": "MSLLSVKQSSINEDHNNWDFFGHFVLRSTGFPYEWMKELKMQQTFDLIFQNAKWEQVESKFNQELAIKREQLKAYFDSEDFRQAVFISNPDMYQHIDRYMKHFQSHSRPSKVKRIEKKLFTYLQRFCGKNESASFFGPLNYGQVEPNIDEYWDGSFIETKDLQKREAFLSYWAVKALAKAVAKENELAPYVPLQIPSWIVVRKEYVVLSSGKRINLPAWMMEIMHYIQETSSCLWELQNHFNHIEAGQLKASLEKLISKGLIHREWIIPSTVVHPLHRLLEQLRELPDSPAKNKWCQALDELASEVTKLANLPIVEKRRSFAHLEETFTKLTGEPSRRGKASLYADRFIYYEDAQGHIQEFRFGKPFIEDLQTKLAGSLNMSAAYGEEIWAYYQELGRNVYEDMQVEARNDEKRQLANSGIPFSSFINKLRQTYPDVPQLPKSSFSNKIEAIIREKGTEQRVVKLTSDQLNVFPSNRSFYSLPDLFLQAENIEALRNGDVQIILAKLHHHLLMHNWMTYFYQEKERLERDLVQLVQKLDHEDGTVLSGLEIMRRNKAYYDYPTTVIEYAEKPDSSKESIKLTDLIVVRNDDGHLELQEKNTSRPIELYVPLADQVHYLPFAMFSKPMLLHVPISSGKHTPRIVIDDVVYQRERWFFYTKQLVDLFHQLQGPLLLKKVEEWRQAEGIPEVVYIKGSDVRKPYWVDFKNYFSLELMQQILLENNEITIEEMLPDPHHLWLKSRKGSHSCELRMSVYKLGIKEVSEHAEGHHHHHH", "values": [
      {"measurement": "soluble on expression in E. coli", "value": "soluble"}
    ]},
    {"sequence": "MGSDKIHHHHHHMDTDWSNLAVRLERLLERFERIIDRHDPVLPRDPAFFDGAIAFRWRRSGEQGTFEPVTHPHLPDPADLVGIDLVREDLIRNTAQFMDGYPANNVLLWGERGTGKSTCVKGMLRLFADRGLRLVEVQRDDLMSLPALIAALRSVPRRFILFCDDLSFGEGEGGYRELKALLEGSIEAKPTNILFYATSNRRHLLPERMEDNLSSEIHPEEAVSEKLSLADRFGMALGFYPFSQDVYLSIVERYAEKFALPMEREALRKEAHLWAMYRGSRSGRSARQFIDDLAGRLGVRLNDR", "values": [
      {"measurement": "soluble on expression in E. coli", "value": "not soluble"}
    ]}
  ]
}
